Target: apoptosis-inducing factor, mitochondrial (AIFM1) (human) (UniProt O95831)
Test: cross-linking

stoichiometry N: 2
Substance: apoptosis-inducing factor, mitochondrial (AIFM1) (from UniProt O95831 103-613) (natural protein)

From doi:10.1101/2025.08.20.671286
